B1: POU domain, class 2, transcription factor 1, residues 285 to 354; numbered along this chain, P14859 (parent)
chain: LEELEQFAKTFKQRRIKLGFTQGDVGLAMGKLYGNDFSQTTISRFEALNLSFKNMCKLKPLLEKWLNDAE

± gives the uncertainty stated by the source.

This data set covers variants of B1. Nature of the data set: abundance fitness (aPCA) (normalised: wild type 0, dead -1); higher = more abundant; growth selection in yeast, the domain comes from the species named. To be noted: Homo sapiens.
For the variant LEELEQFPKTFKQRRIKLGFTQGDVGLAMGKLYGNDFSQTTISRFEALNLSFKNMCKLKPLLEKWLNDAE [A8P], the abundance fitness was -0.447 ± 0.031.
As for LEELEQFWKTFKQRRIKLGFTQGDVGLAMGKLYGNDFSQTTISRFEALNLSFKNMCKLKPLLEKWLNDAE [A8W], the figure is -0.528 ± 0.041.
Next, LEELEQFVKTFKQRRIKLGFTQGDVGLAMGKLYGNDFSQTTISRFEALNLSFKNMCKLKPLLEKWLNDAE [A8V]: 0.01 ± 0.028; LEELEQFFKTFKQRRIKLGFTQGDVGLAMGKLYGNDFSQTTISRFEALNLSFKNMCKLKPLLEKWLNDAE [A8F]: -0.602 ± 0.063.
Consider LEELEQFIKTFKQRRIKLGFTQGDVGLAMGKLYGNDFSQTTISRFEALNLSFKNMCKLKPLLEKWLNDAE [A8I], for which the abundance fitness was -0.008 ± 0.054.
As for LEELEQFTKTFKQRRIKLGFTQGDVGLAMGKLYGNDFSQTTISRFEALNLSFKNMCKLKPLLEKWLNDAE [A8T], the abundance fitness was 0.004 ± 0.033.
Consider LEELEQFLKTFKQRRIKLGFTQGDVGLAMGKLYGNDFSQTTISRFEALNLSFKNMCKLKPLLEKWLNDAE [A8L], for which the abundance fitness is -0.252 ± 0.029.
Turning to LEELEQFDKTFKQRRIKLGFTQGDVGLAMGKLYGNDFSQTTISRFEALNLSFKNMCKLKPLLEKWLNDAE [A8D], the abundance fitness was -0.968 ± 0.13.
As for LEELEQFKKTFKQRRIKLGFTQGDVGLAMGKLYGNDFSQTTISRFEALNLSFKNMCKLKPLLEKWLNDAE [A8K], the figure is -0.72 ± 0.076.
For LEELEQFHKTFKQRRIKLGFTQGDVGLAMGKLYGNDFSQTTISRFEALNLSFKNMCKLKPLLEKWLNDAE [A8H], the abundance fitness is -0.499 ± 0.064.
Next, LEELEQFCKTFKQRRIKLGFTQGDVGLAMGKLYGNDFSQTTISRFEALNLSFKNMCKLKPLLEKWLNDAE [A8C]: -0.05 ± 0.038.
Take LEELEQFMKTFKQRRIKLGFTQGDVGLAMGKLYGNDFSQTTISRFEALNLSFKNMCKLKPLLEKWLNDAE [A8M]: the abundance fitness is -0.205 ± 0.042.
As for LEELEQFNKTFKQRRIKLGFTQGDVGLAMGKLYGNDFSQTTISRFEALNLSFKNMCKLKPLLEKWLNDAE [A8N], the figure is -0.625 ± 0.14; as for LEELEQFRKTFKQRRIKLGFTQGDVGLAMGKLYGNDFSQTTISRFEALNLSFKNMCKLKPLLEKWLNDAE [A8R], -0.154 ± 0.021; as for LEELEQFSKTFKQRRIKLGFTQGDVGLAMGKLYGNDFSQTTISRFEALNLSFKNMCKLKPLLEKWLNDAE [A8S], -0.082 ± 0.03.
Consider LEELEQFQKTFKQRRIKLGFTQGDVGLAMGKLYGNDFSQTTISRFEALNLSFKNMCKLKPLLEKWLNDAE [A8Q], for which the abundance fitness was -0.283 ± 0.045.
As for LEELEDFAKTFKQRRIKLGFTQGDVGLAMGKLYGNDFSQTTISRFEALNLSFKNMCKLKPLLEKWLNDAE [Q6D], the figure is -0.086 ± 0.09.
Next, LEELEEFAKTFKQRRIKLGFTQGDVGLAMGKLYGNDFSQTTISRFEALNLSFKNMCKLKPLLEKWLNDAE [Q6E]: 0.034 ± 0.055; LEELEIFAKTFKQRRIKLGFTQGDVGLAMGKLYGNDFSQTTISRFEALNLSFKNMCKLKPLLEKWLNDAE [Q6I]: -0.009 ± 0.051; LEELEMFAKTFKQRRIKLGFTQGDVGLAMGKLYGNDFSQTTISRFEALNLSFKNMCKLKPLLEKWLNDAE [Q6M]: -0.038 ± 0.021.
Take LEELESFAKTFKQRRIKLGFTQGDVGLAMGKLYGNDFSQTTISRFEALNLSFKNMCKLKPLLEKWLNDAE [Q6S]: the abundance fitness is -0.017 ± 0.026.
Next, LEELEKFAKTFKQRRIKLGFTQGDVGLAMGKLYGNDFSQTTISRFEALNLSFKNMCKLKPLLEKWLNDAE [Q6K]: 0.034 ± 0.03; LEELENFAKTFKQRRIKLGFTQGDVGLAMGKLYGNDFSQTTISRFEALNLSFKNMCKLKPLLEKWLNDAE [Q6N]: 0.074 ± 0.071.
Next, LEELEYFAKTFKQRRIKLGFTQGDVGLAMGKLYGNDFSQTTISRFEALNLSFKNMCKLKPLLEKWLNDAE [Q6Y]: -0.03 ± 0.05; LEELEPFAKTFKQRRIKLGFTQGDVGLAMGKLYGNDFSQTTISRFEALNLSFKNMCKLKPLLEKWLNDAE [Q6P]: -0.245 ± 0.031; LEELEFFAKTFKQRRIKLGFTQGDVGLAMGKLYGNDFSQTTISRFEALNLSFKNMCKLKPLLEKWLNDAE [Q6F]: -0.059 ± 0.041.
Next, LEELEVFAKTFKQRRIKLGFTQGDVGLAMGKLYGNDFSQTTISRFEALNLSFKNMCKLKPLLEKWLNDAE [Q6V]: -0.076 ± 0.031; LEELEHFAKTFKQRRIKLGFTQGDVGLAMGKLYGNDFSQTTISRFEALNLSFKNMCKLKPLLEKWLNDAE [Q6H]: -0.001 ± 0.025.
As for LEELELFAKTFKQRRIKLGFTQGDVGLAMGKLYGNDFSQTTISRFEALNLSFKNMCKLKPLLEKWLNDAE [Q6L], the abundance fitness is -0.031 ± 0.019.
Next, LEELEAFAKTFKQRRIKLGFTQGDVGLAMGKLYGNDFSQTTISRFEALNLSFKNMCKLKPLLEKWLNDAE [Q6A]: 0.015 ± 0.049; LEELETFAKTFKQRRIKLGFTQGDVGLAMGKLYGNDFSQTTISRFEALNLSFKNMCKLKPLLEKWLNDAE [Q6T]: 0.025 ± 0.04.
As for LEELEWFAKTFKQRRIKLGFTQGDVGLAMGKLYGNDFSQTTISRFEALNLSFKNMCKLKPLLEKWLNDAE [Q6W], the figure is -0.058 ± 0.032.
As to LEELEGFAKTFKQRRIKLGFTQGDVGLAMGKLYGNDFSQTTISRFEALNLSFKNMCKLKPLLEKWLNDAE [Q6G], the abundance fitness was -0.012 ± 0.051.
As for LEELEQAAKTFKQRRIKLGFTQGDVGLAMGKLYGNDFSQTTISRFEALNLSFKNMCKLKPLLEKWLNDAE [F7A], the figure is -0.355 ± 0.18; as for LEELEQVAKTFKQRRIKLGFTQGDVGLAMGKLYGNDFSQTTISRFEALNLSFKNMCKLKPLLEKWLNDAE [F7V], 0.191 ± 0.27.
As for LEELEQSAKTFKQRRIKLGFTQGDVGLAMGKLYGNDFSQTTISRFEALNLSFKNMCKLKPLLEKWLNDAE [F7S], the figure is -0.324 ± 0.088; as for LEELEQIAKTFKQRRIKLGFTQGDVGLAMGKLYGNDFSQTTISRFEALNLSFKNMCKLKPLLEKWLNDAE [F7I], -0.298 ± 0.17.
As for LEELEQCAKTFKQRRIKLGFTQGDVGLAMGKLYGNDFSQTTISRFEALNLSFKNMCKLKPLLEKWLNDAE [F7C], the figure is -0.011 ± 0.13.

(Values after the Human Domainome abundance scans (Beltran et al. 2025).)
